Reference: patent US20050255113A1, “Methods and compositions for inhibiting polypeptide accumulation associated with neurological disorders” (New York State Department of Health and Abgenix, Inc., priority 1999, published 2005)

Columns and labels:
[1] = biological target: T1, biotinylated HD-peptide (HD peptide (1-17), N-terminal huntingtin) (Homo sapiens, UniProt P42858); assay: Kinetic binding analysis by surface plasmon resonance (BIAcore 2000); settings: corresponding to the Kd
T1 construct: host or cells: chemical peptide synthesis
Description: A range of concentration (60 to 100 nM) of anti-huntingtin intrabody C4 sFv was used to measure the association rate (kon) on 50 RU of biotinylated-HD peptide bound to a streptavidin sensor chip.
The Kd of purified scFv clone C4 was determined by using surface plasmon resonance in a BIAcore 2000 (Biacore AG, Uppsala, Sweden). In a BIAcore flow cell, approximately 50 resonance units (RU) of biotinylated HD-peptide (250 nM in 1M NaCl and 50 mM NaOH) was coupled to a streptavidin sensor chip, pre-conditioned with three consecutive 1-minute injections of 1 M NaCl in 50 mM NaOH. […] Association was measured under a continuous flow of 5 μl/min with a concentration range from 60 to 100 nM, The kon was determined from a plot of In (dR/dt)/t versus concentration, where R is response and t is time (Karlsson et al., J. Immunol. Methods 145: 229-240 (1991)). The koff was determined from the dissociation part of the sensorgram at the highest concentration of intrabody analyzed by using a flow rate of 20 μl/min. The Kd was calculated as koff/kon.
To characterize the precise binding properties of the intrabody of the invention, further qualitative and quantitative studies of sFv binding to immobilized antigen were conducted in vitro. […] The kinetics of association and dissociation were determined for the C4 sFv antibody in the BIAcore 2000 (FIG. 11B).

[2] = test system: DRPLA polypeptide (GFP-DRPLA-35Q, GFP-DRPLA-Q81); assay: Intrabody retargeting specificity in COS-7 cells with DRPLA polypeptide (immunofluorescence); format: cell-based; settings: COS-7 co-transfection
Chain of DRPLA polypeptide (GFP-DRPLA-35Q, GFP-DRPLA-Q81) (P54259 with tags, fused parts or gaps DUP487-502): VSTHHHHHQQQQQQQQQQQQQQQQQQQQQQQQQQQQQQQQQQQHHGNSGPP
Description: COS 7 cells were grown on cover glass in 6-well plates (10^5 cells/well) and co-transfected at a ratio of 3:1 (sFv to target) with plasmids containing either N-HD-C4 sFv or a negative control sFv (containing an HA tag and SV40 nuclear localization sequence (NLS)) and plasmids containing GFP-targeted fusion proteins using 5 μl SuperFect transfection reagent (QIAGEN). At 24 hours post-transfection, cells were prepared for immunofluorescence as follows: cells were fixed with 4% paraformaldehyde and permeabilized with 0.2% triton-X100. To prevent non-specific binding of secondary antibodies, cells were blocked with 10% normal goat serum in 3% BSA.
The model DRPLA target polypeptide was fused to a GFP domain to track the expression and intracellular localization of the target polypeptide in the transfected cells. In addition, two different intrabodies, one specific to huntingtin, and a second intrabody specific to an unrelated polypeptide, were independently cotransfected with the DRPLA target polypeptide.
FIGS. 13A-F show stably transfected COS-7 cells expressing α-Nt-HD-C4 sFv-HA-NLS which were further transfected with plasmids encoding either the model altered huntingtin polypeptide with 104 glutamine repeats (FIGS. 13B, D, F) or the model altered DRPLA polypeptide with 81 glutamine repeats (FIGS. 13A, C, E). […]

[3] = test system: HD-polyQ-GFP aggregation in COS-7, BHK-21 and HEK 293 cells; assay: Quantitation of SDS-insoluble fluorescent aggregates after co-transfection of sFv and HD-polyQ-GFP; format: cell-based; settings: for number of SDS-insoluble fluorescent aggregates: intrabody to antigen plasmid ratio 5:1, HD-polyQ72 or Q104, 48 hours, COS-7, BHK-21, HEK 293, versus empty vector/control
Description: Cells are shown photographed live at 48 hours after transfection by the calcium phosphate method; aggregates appear as intense foci of GFP signals. […] […] Cells were lysed with 2% SDS/2% Triton X-100/50 mM Tris at 48 hours after co-transfection. The number of insoluble, fluorescent aggregates in six or eight random fields was counted. Bars represent means of sextuplicate co-transfections ±SEM.
In particular, it was observed that the formation of pathological HD aggregates in situ display a striking punctate fluorescent morphology with polyglutamine lengths of 40 or more residues (i.e., with Q72 or Q104, but not Q25; FIG. 14). In addition, because these polypeptide aggregates are detergent-insoluble, a method for improved quantitation of residual fluorescent bodies after SDS lysis of transfected cells could be performed (Kazantsev et al., PNAS 96:11404-11409 (1999)). This improved assay allows for polypeptide aggregates to be more accurately enumerated because the plane of focus is eliminated as a variable in the experiment. Accordingly, this assay was utilized for quantitation of polyQ antigen aggregation, alone or in the presence of C4 sFv or control intrabody. COS-7, BHK, and 293 cells were co-transfected with plasmids that express the C4 or a control intrabody and HD-polyQ-eGFP fusions containing Q25, Q72, or Q104.

[4] = test system: HD-72Q-GFP protein expression; assay: Immunoblot of HD-72Q-GFP protein expression in co-transfections; format: cell-based; settings: 5:1 co-transfections, 24 hours, different transfection paradigms
Description: Some aggregates are found in 104Q co-transfections (never in 25Q), often in cells not expressing C4 (arrowheads), but in some dually-transfected cells as well (arrow). […] Cell lysates were collected from 5:1 co-transfections (sFv:HD-72Q-GFP) in duplicate at 24 hours (prior to prominent aggregate formation and loss of HD-72Q-GFP to the insoluble compartment) and subjected to SDS-PAGE. The membrane was probed with 1:1000 […] primary antibody (Quantum), stripped and reprobed with 1:500 anti-actin antibody (Sigma). HD-72Q-GFP bands were of similar intensity after detection by HRP-conjugated secondary antibody and chemiluminescence.
The typical intrabody constructs were fused to a C-terminal hemagglutinin (HA) peptide tag to facilitate immunodetection of the protein, while keeping the protein localized to the cytosol. […] The diffuse labeling was also characteristic of the normal length (25Q) construct, with or without intrabody co-transfection (FIG. 15).

B1: C4 sFv: human single-chain Fv intrabody from phage display, specific for the 17 N-terminal residues of huntingtin; SEQ ID NO: 6 (protein)
scFv: QVQLQESGGGLVQPGGSLRLSCAASGFTFSSYSMSWVRQAPGKGLEWVAVISYDGSNKYYADSVKGRFTISRDNSKNTLYLQMNSLRAEDTAVYYCARDRYFDLWGRGTLVTVSSGGGGSGGGGSGGGGSQSALTQPASVSGSPGQSITISCTGTSSDIGAYNYVSWYQQYPGKAPKLLIYDVSNRPSGISNRFSGSKSGDTASLTISGLQAEDEADYYCSSFANSGPLFGGGTKVTVL
[1]
  binding affinity (Ka): 1.3e+08 M⁻¹
[2]
  cellular distribution of GFP-DRPLA-35Q: no change in the cellular distribution of DRPLA polypeptide
[3]; intrabody to antigen plasmid ratio 3:1, HD-polyQ72-eGFP or HD-polyQ104-eGFP
  extent of aggregation: qualitative decrease in the extent of aggregation
[3]
  number of SDS-insoluble fluorescent aggregates: pronounced reduction in aggregation
[3]; listed as C4
  number of SDS-insoluble fluorescent aggregates: significantly reduced the number of aggregates
[4]
  HD protein expression level: indistinguishable levels of products
